± gives the standard deviation of the averaged measurements.
What was measured:
Saccharomyces cerevisiae [1] = assay: protein stability index of tFT-peptide fusion (C-terminal peptide) (PSI (0-1 scale)); higher = more stable (slower turnover)
Protocol: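 MPS profiling in S. cerevisiae of the tFT-X12 degron library: putative degron peptides plus stable controls, 12 aa, fused to the C-terminus of a sfGFP-mCherry timer. Cells are FACS-sorted into 8 mCherry/sfGFP bins and deep-sequenced. PSI runs from 0 (unstable) to 1 (stable). Backgrounds are wild type, das1Δ and doa10Δ at 30 °C, and wild type, das1Δ, cdc34-1 and cdc53-1 at 37 °C; 2-3 technical replicates each.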

Saccharomyces cerevisiae [2] = assay: as above; settings: genetic background: wild type; temperature: 30 C
[3] = genetic background: cdc34-1, temperature: 37 C
[4] = genetic background: cdc53-1, temperature: 37 C
[5] = genetic background: das1 deletion, temperature: 30 C
[6] = genetic background: das1 deletion, temperature: 37 C
[7] = genetic background: doa10 deletion, temperature: 30 C
[8] = genetic background: wild type, temperature: 30 C
[9] = genetic background: wild type, temperature: 37 C
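Also: PSI is a weighted mean of sequencing reads over stability bins, variants kept only with over 10 reads, mCherry proximal and sfGFP distal, peptide attached via GGGS linker.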

Sequence | protein stability index (Saccharomyces cerevisiae [1]; [3]) | protein stability index (Saccharomyces cerevisiae [1]; [4]) | protein stability index (Saccharomyces cerevisiae [1]; [5]) | protein stability index (Saccharomyces cerevisiae [1]; [6]) | protein stability index (Saccharomyces cerevisiae [1]; [7]) | protein stability index (Saccharomyces cerevisiae [1]; [8]) | protein stability index (Saccharomyces cerevisiae [1]; [9]) | protein stability index (Saccharomyces cerevisiae [2])
VCVYLVSLPYLA | 0.451 ± 0.015 | 0.462 ± 0.025 | 0.39 ± 0.026 | 0.522 ± 0.021 | 0.239 ± 0.018 | 0.232 ± 0.03 | 0.381 ± 0.011 | 0.303 ± 0.035
VDFCLLFLLLLV | 0.427 ± 0.041 | 0.442 ± 0.0072 | 0.349 ± 0.034 | 0.482 ± 0.032 | 0.425 ± 0.027 | 0.331 ± 0.02 | 0.462 ± 0.014 | 0.432 ± 0.025
VFCLPISAPPLH | 0.679 ± 0.0083 | 0.739 ± 0.022 | 0.642 ± 0.023 | 0.727 ± 0.0031 | 0.626 ± 0.02 | 0.635 ± 0.019 | 0.7027 ± 0.0031 | 0.685 ± 0.023
VFCMVLPFVLLT | 0.126 ± 0.018 | 0.0906 ± 0.016 | 0.194 ± 0.024 | 0.2715 ± 0.0011 | 0.1776 ± 0.0015 | 0.136 ± 0.02 | 0.157 ± 0.016 | 0.214 ± 0.035
VFFCVLRVFFSA | 0.0798 ± 0.024 | 0.161 ± 0.015 | 0.175 ± 0.024 | 0.291 ± 0.0075 | 0.114 ± 0.013 | 0.132 ± 0.029 | 0.195 ± 0.0091 | 0.193 ± 0.017
VFFIFFFAFLFF | 0.294 ± 0.035 | 0.289 ± 0.0075 | 0.335 ± 0.052 | 0.41 ± 0.0072 | 0.393 ± 0.01 | 0.322 ± 0.014 | 0.39 ± 0.03 | 0.329 ± 0.051
VFFMFVFFPFPG | 0.523 ± 0.084 | 0.584 ± 0.035 | 0.404 ± 0.029 | 0.592 ± 0.03 | 0.368 ± 0.014 | 0.413 ± 0.028 | 0.538 ± 0.0059 | 0.471 ± 0.026
VFGSRCLLTVVV | 0.472 ± 0.0098 | 0.477 ± 0.023 | 0.367 ± 0.032 | 0.5185 ± 0.0017 | 0.336 ± 0.018 | 0.358 ± 0.043 | 0.504 ± 0.0071 | 0.438 ± 0.043
VFGWWSVVLRVA | 0.0612 ± 0.0012 | 0.0938 ± 0.009 | 0.166 ± 0.027 | 0.249 ± 0.0082 | 0.0577 ± 0.014 | 0.0694 ± 0.017 | 0.0612 ± 0.011 | 0.109 ± 0.029
VFILGFLCLLFF | 0.403 ± 0.03 | 0.428 ± 0.014 | 0.342 ± 0.017 | 0.497 ± 0.077 | 0.362 ± 0.045 | 0.334 ± 0.024 | 0.445 ± 0.054 | 0.355 ± 0.036
VFIPFGFCLCFV | 0.408 ± 0.012 | 0.4114 ± 0.0039 | 0.317 ± 0.019 | 0.466 ± 0.0087 | 0.318 ± 0.015 | 0.295 ± 0.017 | 0.4401 ± 0.0027 | 0.373 ± 0.0028
VFLCFSWHFFLF | 0.4543 ± 0.0039 | 0.591 ± 0.035 | 0.411 ± 0.037 | 0.559 ± 0.036 | 0.297 ± 0.0049 | 0.304 ± 0.029 | 0.467 ± 0.011 | 0.405 ± 0.012
VFLVGFRVTLDS | 0.267 ± 0.035 | 0.289 ± 0.011 | 0.219 ± 0.025 | 0.404 ± 0.018 | 0.189 ± 0.018 | 0.215 ± 0.033 | 0.419 ± 0.0069 | 0.295 ± 0.0062
VFSFWVLCEVSV | 0.0333 ± 0.0097 | 0.0546 ± 0.015 | 0.0315 ± 0.0099 | 0.0841 ± 0.013 | 0.0219 ± 0.0031 | 0.0221 ± 0.0057 | 0.072 ± 0.02 | 0.04525 ± 0.0004
VFVFTFSLSFYC | 0.223 ± 0.031 | 0.326 ± 0.0073 | 0.25 ± 0.028 | 0.356 ± 0.019 | 0.257 ± 0.02 | 0.274 ± 0.018 | 0.3241 ± 0.0021 | 0.3465 ± 0.0031
VFVRDFLVSIVV | 0.0474 ± 0.014 | 0.0563 ± 0.0023 | 0.174 ± 0.025 | 0.196 ± 0.0061 | 0.139 ± 0.0096 | 0.164 ± 0.022 | 0.166 ± 0.011 | 0.257 ± 0.014
VFWVLVSFLFYV | 0.339 ± 0.011 | 0.406 ± 0.012 | 0.307 ± 0.028 | 0.4496 ± 0.0013 | 0.281 ± 0.014 | 0.3 ± 0.018 | 0.4059 ± 0.0036 | 0.346 ± 0.023
VFWVVFRALVGD | 0.191 ± 0.015 | 0.29497 ± 0.00028 | 0.217 ± 0.018 | 0.269 ± 0.02 | 0.222 ± 0.013 | 0.212 ± 0.0029 | 0.26 ± 0.0051 | 0.233 ± 0.022
VGAGVFAWLWVA | 0.533 ± 0.02 | 0.664 ± 0.016 | 0.59 ± 0.016 | 0.7101 ± 0.001 | 0.128 ± 0.025 | 0.145 ± 0.024 | 0.135 ± 0.0078 | 0.199 ± 0.024
VGAYSVVYVVFS | 0.481 ± 0.026 | 0.517 ± 0.011 | 0.322 ± 0.026 | 0.5467 ± 0.00081 | 0.272 ± 0.0067 | 0.318 ± 0.025 | 0.529 ± 0.0059 | 0.433 ± 0.036

— the supplement of paper PMC10724198
